Measured values reported in patent US5451506A, “Oncostatin M and novel compositions having anti-neoplastic activity” (Oncogen Limited Partnership, priority 1993, dated 1995).

Tests used:
[1] = biological target: T1, Oncostatin M receptor on A375 or A549 cells (Homo sapiens, UniProt P40189+Q99650); assay: Specificity of Oncostatin M receptor: competition for binding of 125I-Oncostatin M; conditions: 125I-Oncostatin M 30-50 ng/ml
T1 construct: endogenous in cells; host or cells: A375 or A549 cells (intact monolayers)
T1 sequence (Q99650 28-979): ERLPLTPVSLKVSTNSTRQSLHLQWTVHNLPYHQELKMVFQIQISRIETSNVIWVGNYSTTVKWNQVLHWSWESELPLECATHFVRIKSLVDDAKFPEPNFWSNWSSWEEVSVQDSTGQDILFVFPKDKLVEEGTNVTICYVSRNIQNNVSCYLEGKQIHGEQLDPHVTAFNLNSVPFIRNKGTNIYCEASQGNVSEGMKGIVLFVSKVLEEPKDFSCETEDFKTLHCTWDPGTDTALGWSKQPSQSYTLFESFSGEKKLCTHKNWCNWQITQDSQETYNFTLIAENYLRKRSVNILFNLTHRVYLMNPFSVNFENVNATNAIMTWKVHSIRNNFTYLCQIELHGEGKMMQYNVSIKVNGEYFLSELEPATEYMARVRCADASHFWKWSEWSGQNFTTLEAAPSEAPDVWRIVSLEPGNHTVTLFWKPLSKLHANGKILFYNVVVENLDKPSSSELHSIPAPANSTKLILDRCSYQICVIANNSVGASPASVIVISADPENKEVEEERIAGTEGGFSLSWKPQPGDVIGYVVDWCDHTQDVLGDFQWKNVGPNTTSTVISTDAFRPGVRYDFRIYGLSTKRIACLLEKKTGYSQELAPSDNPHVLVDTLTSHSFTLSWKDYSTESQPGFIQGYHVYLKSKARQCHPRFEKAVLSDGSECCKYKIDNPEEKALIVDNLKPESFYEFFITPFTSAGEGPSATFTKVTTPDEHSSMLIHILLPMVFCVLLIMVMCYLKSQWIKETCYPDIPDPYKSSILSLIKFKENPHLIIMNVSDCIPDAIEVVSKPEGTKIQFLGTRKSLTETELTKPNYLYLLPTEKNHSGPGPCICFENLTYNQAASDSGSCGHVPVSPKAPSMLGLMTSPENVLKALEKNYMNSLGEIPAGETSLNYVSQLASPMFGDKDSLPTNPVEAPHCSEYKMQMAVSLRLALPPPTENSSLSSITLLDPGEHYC
T1 sequence (P40189 23-918): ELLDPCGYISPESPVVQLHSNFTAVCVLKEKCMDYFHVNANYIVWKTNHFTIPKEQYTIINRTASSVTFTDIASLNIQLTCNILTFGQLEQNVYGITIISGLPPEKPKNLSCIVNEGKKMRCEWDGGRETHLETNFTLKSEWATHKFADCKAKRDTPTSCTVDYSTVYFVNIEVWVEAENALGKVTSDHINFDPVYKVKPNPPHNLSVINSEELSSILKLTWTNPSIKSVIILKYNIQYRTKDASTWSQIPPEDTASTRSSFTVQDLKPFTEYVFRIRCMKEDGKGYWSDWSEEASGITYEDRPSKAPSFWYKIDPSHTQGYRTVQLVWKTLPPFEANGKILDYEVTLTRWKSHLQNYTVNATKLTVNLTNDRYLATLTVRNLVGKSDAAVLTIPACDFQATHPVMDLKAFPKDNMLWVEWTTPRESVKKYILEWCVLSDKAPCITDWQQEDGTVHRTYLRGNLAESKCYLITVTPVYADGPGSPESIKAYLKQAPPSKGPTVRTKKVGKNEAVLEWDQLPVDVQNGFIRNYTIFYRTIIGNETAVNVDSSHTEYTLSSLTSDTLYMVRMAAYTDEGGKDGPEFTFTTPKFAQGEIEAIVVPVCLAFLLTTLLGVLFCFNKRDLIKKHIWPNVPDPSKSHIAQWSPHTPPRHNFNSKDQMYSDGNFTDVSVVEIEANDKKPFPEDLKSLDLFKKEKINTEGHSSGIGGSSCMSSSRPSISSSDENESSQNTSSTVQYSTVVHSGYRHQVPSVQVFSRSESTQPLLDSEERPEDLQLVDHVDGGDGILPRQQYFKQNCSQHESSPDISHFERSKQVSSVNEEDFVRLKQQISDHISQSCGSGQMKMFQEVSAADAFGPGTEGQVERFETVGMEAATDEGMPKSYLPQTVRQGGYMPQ
Protocol: The cell line of interest was plated in 48-well plates at a density of 2×10^5 cells/well and maintained at 37° C. for 16-24 hours before initiation of the assay. Cell monolayers were then washed once with Binding buffer (Linsley et al., Biochemistry (1986) 25:2978-2986). To measure total binding, ^125 I-Oncostatin M was added at concentrations ranging from 0.5-100 ng/ml. To measure non-specific binding, unlabeled Oncostatin M was added simultaneously with the ^125 I-Oncostatin M to replicate plates at a concentration 20- to 100-fold higher than the concentration of ^125 I-Oncostatin M. Binding was allowed to proceed for 2-5 hours at 23°, then the monolayers were washed four times with Binding Buffer, cell-bound radioactivity was solubilized with 1N NaOH and was counted in a gamma counter. Specific binding was calculated by subtracting the non-specific binding from total binding. The dissociation constant (Kd) and binding capacity was determined by Scatchard analysis (Scatchard, Ann. N.Y. Acad. Sci. (1949) 51:660).
The specificity of the Oncostatin M receptor was determined by evaluating the ability of several other polypeptide growth factors to compete for binding of ^125 I-Oncostatin M (at 30-50 ng/ml) to A375 or A549 cells.

[2] = system: A375 cells; assay: Growth inhibition assay (A375 proliferation; synergy tests); format: cell-based, human
Protocol: A375 melanoma cells (4×10^3 cells/50 μl), Mv1Lu mink lung epithelial cells (3.5×10^3 cells/50 μl), or other cell line of interest at an appropriate cell density were subcultured for four hours on flat-bottomed 96-well tissue culture plates (Costar 3596, Cambridge, Mass.) in growth medium comprising Dulbecco's modified Eagle's medium (DMEM), supplemented with 10% heat-in-activated fetal bovine serum, and P/S. Test samples to be assayed for growth inhibition were diluted in growth medium and assayed in triplicate with 50 μl of the diluted sample added to each well. The cells were incubated for 72 hours at 37° C.
The growth inhibitory activity of highly purified TGF-β1, recombinant gamma-interferon (rIFN-γ), and Oncostatin M on A375 cells was determined, and possible synergy between TGF-β1 and Oncostatin M, TGF-β1 and rIFN-γ, and Oncostatin M and rIFN-γ in inhibiting A375 proliferation was tested. […] is expressed in units of Mv1Lu growth inhibitory activity, rIFN-γ in units of anti-viral activity and Oncostatin M in units of A375 growth inhibitory activity. Concentrations of TGF-β1 (1-30 U/ml) and Oncostatin M (0.5-10 U/ml) were chosen which caused either no or only minimal growth inhibition when tested individually.

[3] = system: A375 cells; assay: Growth inhibitory assay of recombinant Oncostatin M (crystal violet staining); format: cell-based, human; conditions: for Oncostatin M activity in medium of transfected COS cells: further test, one unit inhibits growth of A375 cells by 50%; for Expression Level Units/ml (growth inhibitory activity): medium or extract of the expressing host cells (COS, CHO without methotrexate amplification, sf9)
Protocol: Biological activity of recombinant Oncostatin M was assessed by a growth inhibitory assay. Briefly, aliquots of extracts from transformed cells or medium from cell cultures were lyophilized with 20 μg bovine serum albumin as a carrier protein, resuspended in DMEM containing 10% fetal calf serum, and diluted serially before addition to 96-well cultures containing A375 cells (3.5×10^3 cells/well). […] Recombinant Oncostatin M was prepared using the following expression systems: E. coli, COS cells, CHO and insect cells (sf9).

## Lys^3 bombesin
[1]; competitor 50 μM
  Inhibitory activity towards binding of 125I-Oncostatin M: None of these showed significant inhibitory activity

## TGF-β1: highly purified transforming growth factor-β1, units of Mv1Lu growth inhibitory activity
[2]; 3.4 U/ml, alone
  Inhibition of cell growth: 7%

## Tyr^3 -bombesin
[1]; competitor 1 μM
  Inhibitory activity towards binding of 125I-Oncostatin M: None of these showed significant inhibitory activity

## epidermal growth factor: polypeptide growth factor tested as competitor
[1]; competitor 2.5 μg/ml
  Inhibitory activity towards binding of 125I-Oncostatin M: None of these showed significant inhibitory activity

## fibroblast growth factor
[1]; competitor 2.5 μg/ml
  Inhibitory activity towards binding of 125I-Oncostatin M: None of these showed significant inhibitory activity

## formyl-M-L-F
[1]; competitor 50 μM
  Inhibitory activity towards binding of 125I-Oncostatin M: None of these showed significant inhibitory activity

## interleukin 1-β: polypeptide growth factor tested as competitor
[1]; competitor 50 μg/ml
  Inhibitory activity towards binding of 125I-Oncostatin M: None of these showed significant inhibitory activity

B1: gamma interferon: gamma-interferon; recombinant in the synergy tests (protein, UniProt P01579 24-161, looked up)
Interferon gamma: QDPYVKEAENLKKYFNAGHSDVADNGTLFLGILKNWKEESDRKIMQSQIVSFYFKLFKNFKDDQSIQKSVETIKEDMNVKFFNSNKKKRDDFEKLTNYSVTDLNVQRKAIHELIQVMAELSPAAKTGKRKRSQMLFRG
[1]; competitor 2.5 μg/ml
  Inhibitory activity towards binding of 125I-Oncostatin M: None of these showed significant inhibitory activity

B2: ^125 I-Oncostatin M: Oncostatin M purified from TPA-treated U937 cells and radiolabeled with 125I by the iodogen method (protein, UniProt P13725 26-221, looked up)
Oncostatin-M: AAIGSCSKEYRVLLGQLQKQTDLMQDTSRLLDPYIRIQGLDVPKLREHCRERPGAFPSEETLRGLGRRGFLQTLNATLGCVLHRLADLEQRLPKAQDLERSGLNIEDLEKLQMARPNILGLRNNIYCMAQLLDNSDTAEPTKAGRGASQPPTPTPASDAFQRKLEGCRFLHGYHRFMHSVGRVFSKWGESPNRSRR
modifications: 125I label
notes: Oncostatin M purified from TPA-treated U937 cells and radiolabeled with 125I by the iodogen method
[2]; growth inhibition assays
  Original biological activity retained after iodination: approximately 85%

B3: pH3M/βOncM: Oncostatin M with βTGF leader sequence fused to the coding sequence, secreted into medium (protein, UniProt P13725 26-221, looked up)
Oncostatin-M: AAIGSCSKEYRVLLGQLQKQTDLMQDTSRLLDPYIRIQGLDVPKLREHCRERPGAFPSEETLRGLGRRGFLQTLNATLGCVLHRLADLEQRLPKAQDLERSGLNIEDLEKLQMARPNILGLRNNIYCMAQLLDNSDTAEPTKAGRGASQPPTPTPASDAFQRKLEGCRFLHGYHRFMHSVGRVFSKWGESPNRSRR
modifications: expressed with TGF-beta leader sequence
[3]; E. coli fusion proteins purified and refolded before testing
  Sp. Act: > 10,000 GIA units/ug protein
[3]
  Oncostatin M activity in medium of transfected COS cells: approximately 18,000 units/ml
  Expression Level Units/ml (growth inhibitory activity): 56,000 GIA units/ml

B4: pSV2βOncM/dhfr: Human Oncostatin M gene fused to βTGF leader sequence, with mouse dhfr gene (protein, UniProt P13725 26-221, looked up)
Oncostatin-M: AAIGSCSKEYRVLLGQLQKQTDLMQDTSRLLDPYIRIQGLDVPKLREHCRERPGAFPSEETLRGLGRRGFLQTLNATLGCVLHRLADLEQRLPKAQDLERSGLNIEDLEKLQMARPNILGLRNNIYCMAQLLDNSDTAEPTKAGRGASQPPTPTPASDAFQRKLEGCRFLHGYHRFMHSVGRVFSKWGESPNRSRR
modifications: expressed with TGF-beta leader sequence
[3]
  Expression Level Units/ml (growth inhibitory activity): 10,000 GIA units/ml

B5: pAc/OncM: Oncostatin M expressed under control of the baculovirus polyhedrin gene regulators (protein, UniProt P13725 26-221, looked up)
Oncostatin-M: AAIGSCSKEYRVLLGQLQKQTDLMQDTSRLLDPYIRIQGLDVPKLREHCRERPGAFPSEETLRGLGRRGFLQTLNATLGCVLHRLADLEQRLPKAQDLERSGLNIEDLEKLQMARPNILGLRNNIYCMAQLLDNSDTAEPTKAGRGASQPPTPTPASDAFQRKLEGCRFLHGYHRFMHSVGRVFSKWGESPNRSRR
modifications: baculovirus-expressed
notes: Oncostatin M expressed under control of the baculovirus polyhedrin gene regulators
[3]
  Expression Level Units/ml (growth inhibitory activity): 1,800 GIA units/ml

B6: plasmid pH3M containing just the Oncostatin M sequences: pH3M containing Oncostatin M sequences without the fused βTGF leader sequence (protein, UniProt P13725 26-221, looked up)
Oncostatin-M: AAIGSCSKEYRVLLGQLQKQTDLMQDTSRLLDPYIRIQGLDVPKLREHCRERPGAFPSEETLRGLGRRGFLQTLNATLGCVLHRLADLEQRLPKAQDLERSGLNIEDLEKLQMARPNILGLRNNIYCMAQLLDNSDTAEPTKAGRGASQPPTPTPASDAFQRKLEGCRFLHGYHRFMHSVGRVFSKWGESPNRSRR
[3]
  Oncostatin M activity in medium of transfected COS cells: No activity was detected
